Reference: US20160272693A1 (ZEALAND PHARMA A S, published 2016)
*1 amine or outer side, *2 acyl side, *3 side chain or, on linkers, in order; H or OH if unused. Bridges are numbered along the chain shown (N, C = ends). [ ]: non-standard residue; d: D form. The star is where a group is joined. C20 diacid = O=C(O)CCCCCCCCCCCCCCCCCCC(=O)*; γGlu = O=C(O)[C@H](CCC(=O)[*:2])N[*:1]; Hyp = O=C(O)[C@@H]1C[C@@H](O)CN1; NMeI = CC[C@H](C)[C@H](NC)C(=O)O; Aad = N[C@@H](CCCC(=O)O)C(=O)O; Sar = CNCC(=O)O

B1: [19CD]-isoGlu-R-C( )-GTAT-C( )-ATERLAHFLQRSSF-Gly(Me)-A-Ile(Me)-LSSTEVGSNTP-NH2 (Compd. 78) (peptide)
peptide: {C20 diacid}-[γGlu]RCGTATCATERLAHFLQRSSF[Sar]A[NMeI]LSSTEVGSNTP-NH2
modifications: disulfide 3-8
SMILES: CC[C@H](C)[C@@H](C(=O)N[C@@H](CC(C)C)C(=O)N[C@@H](CO)C(=O)N[C@@H](CO)C(=O)N[C@H](C(=O)N[C@@H](CCC(=O)O)C(=O)N[C@H](C(=O)NCC(=O)N[C@@H](CO)C(=O)N[C@@H](CC(N)=O)C(=O)N[C@H](C(=O)N1CCC[C@H]1C(N)=O)[C@@H](C)O)C(C)C)[C@@H](C)O)N(C)C(=O)[C@H](C)NC(=O)CN(C)C(=O)[C@H](Cc1ccccc1)NC(=O)[C@H](CO)NC(=O)[C@H](CO)NC(=O)[C@H](CCCNC(=N)N)NC(=O)[C@H](CCC(N)=O)NC(=O)[C@H](CC(C)C)NC(=O)[C@H](Cc1ccccc1)NC(=O)[C@H](Cc1c[nH]cn1)NC(=O)[C@H](C)NC(=O)[C@H](CC(C)C)NC(=O)[C@H](CCCNC(=N)N)NC(=O)[C@H](CCC(=O)O)NC(=O)[C@@H](NC(=O)[C@H](C)NC(=O)[C@@H]1CSSC[C@H](NC(=O)[C@H](CCCNC(=N)N)NC(=O)CC[C@H](NC(=O)CCCCCCCCCCCCCCCCCCC(=O)O)C(=O)O)C(=O)NCC(=O)N[C@@H]([C@@H](C)O)C(=O)N[C@@H](C)C(=O)N[C@@H]([C@@H](C)O)C(=O)N1)[C@@H](C)O
B2: [19CD]-isoGlu-R-C( )-GTAT-C( )-ATERLAHFLQRF-Gly(Me)-A-Ile(Me)-LSSTEVGSNT-Hyp-NH2 (Compd. 77) (peptide)
peptide: {C20 diacid}-[γGlu]RCGTATCATERLAHFLQRF[Sar]A[NMeI]LSSTEVGSNT[Hyp]-NH2
modifications: disulfide 3-8
SMILES: CC[C@H](C)[C@@H](C(=O)N[C@@H](CC(C)C)C(=O)N[C@@H](CO)C(=O)N[C@@H](CO)C(=O)N[C@H](C(=O)N[C@@H](CCC(=O)O)C(=O)N[C@H](C(=O)NCC(=O)N[C@@H](CO)C(=O)N[C@@H](CC(N)=O)C(=O)N[C@H](C(=O)N1C[C@H](O)C[C@H]1C(N)=O)[C@@H](C)O)C(C)C)[C@@H](C)O)N(C)C(=O)[C@H](C)NC(=O)CN(C)C(=O)[C@H](Cc1ccccc1)NC(=O)[C@H](CCCNC(=N)N)NC(=O)[C@H](CCC(N)=O)NC(=O)[C@H](CC(C)C)NC(=O)[C@H](Cc1ccccc1)NC(=O)[C@H](Cc1c[nH]cn1)NC(=O)[C@H](C)NC(=O)[C@H](CC(C)C)NC(=O)[C@H](CCCNC(=N)N)NC(=O)[C@H](CCC(=O)O)NC(=O)[C@@H](NC(=O)[C@H](C)NC(=O)[C@@H]1CSSC[C@H](NC(=O)[C@H](CCCNC(=N)N)NC(=O)CC[C@H](NC(=O)CCCCCCCCCCCCCCCCCCC(=O)O)C(=O)O)C(=O)NCC(=O)N[C@@H]([C@@H](C)O)C(=O)N[C@@H](C)C(=O)N[C@@H]([C@@H](C)O)C(=O)N1)[C@@H](C)O
B3: [19CD]-isoGlu-R-C( )-NTAT-C( )-ATQRLAHFLQRSSF-Gly(Me)-A-Ile(Me)-LSSTEVGS-Aad-T-Hyp-NH2 (Compd. 75) (peptide)
peptide: {C20 diacid}-[γGlu]RCNTATCATQRLAHFLQRSSF[Sar]A[NMeI]LSSTEVGS[Aad]T[Hyp]-NH2
modifications: disulfide 3-8
SMILES: CC[C@H](C)[C@@H](C(=O)N[C@@H](CC(C)C)C(=O)N[C@@H](CO)C(=O)N[C@@H](CO)C(=O)N[C@H](C(=O)N[C@@H](CCC(=O)O)C(=O)N[C@H](C(=O)NCC(=O)N[C@@H](CO)C(=O)N[C@@H](CCCC(=O)O)C(=O)N[C@H](C(=O)N1C[C@H](O)C[C@H]1C(N)=O)[C@@H](C)O)C(C)C)[C@@H](C)O)N(C)C(=O)[C@H](C)NC(=O)CN(C)C(=O)[C@H](Cc1ccccc1)NC(=O)[C@H](CO)NC(=O)[C@H](CO)NC(=O)[C@H](CCCNC(=N)N)NC(=O)[C@H](CCC(N)=O)NC(=O)[C@H](CC(C)C)NC(=O)[C@H](Cc1ccccc1)NC(=O)[C@H](Cc1c[nH]cn1)NC(=O)[C@H](C)NC(=O)[C@H](CC(C)C)NC(=O)[C@H](CCCNC(=N)N)NC(=O)[C@H](CCC(N)=O)NC(=O)[C@@H](NC(=O)[C@H](C)NC(=O)[C@@H]1CSSC[C@H](NC(=O)[C@H](CCCNC(=N)N)NC(=O)CC[C@H](NC(=O)CCCCCCCCCCCCCCCCCCC(=O)O)C(=O)O)C(=O)N[C@@H](CC(N)=O)C(=O)N[C@@H]([C@@H](C)O)C(=O)N[C@@H](C)C(=O)N[C@@H]([C@@H](C)O)C(=O)N1)[C@@H](C)O
B4: [19CD]-isoGlu-R-C( )-PTAT-C( )-ATERLAHFLQRSSF-Gly(Me)-A-Ile(Me)-LSSTEVGSTT-Hyp-NH2 (Compd. 74) (peptide)
peptide: {C20 diacid}-[γGlu]RCPTATCATERLAHFLQRSSF[Sar]A[NMeI]LSSTEVGSTT[Hyp]-NH2
modifications: disulfide 3-8
SMILES: CC[C@H](C)[C@@H](C(=O)N[C@@H](CC(C)C)C(=O)N[C@@H](CO)C(=O)N[C@@H](CO)C(=O)N[C@H](C(=O)N[C@@H](CCC(=O)O)C(=O)N[C@H](C(=O)NCC(=O)N[C@@H](CO)C(=O)N[C@H](C(=O)N[C@H](C(=O)N1C[C@H](O)C[C@H]1C(N)=O)[C@@H](C)O)[C@@H](C)O)C(C)C)[C@@H](C)O)N(C)C(=O)[C@H](C)NC(=O)CN(C)C(=O)[C@H](Cc1ccccc1)NC(=O)[C@H](CO)NC(=O)[C@H](CO)NC(=O)[C@H](CCCNC(=N)N)NC(=O)[C@H](CCC(N)=O)NC(=O)[C@H](CC(C)C)NC(=O)[C@H](Cc1ccccc1)NC(=O)[C@H](Cc1c[nH]cn1)NC(=O)[C@H](C)NC(=O)[C@H](CC(C)C)NC(=O)[C@H](CCCNC(=N)N)NC(=O)[C@H](CCC(=O)O)NC(=O)[C@@H](NC(=O)[C@H](C)NC(=O)[C@@H]1CSSC[C@H](NC(=O)[C@H](CCCNC(=N)N)NC(=O)CC[C@H](NC(=O)CCCCCCCCCCCCCCCCCCC(=O)O)C(=O)O)C(=O)N2CCC[C@H]2C(=O)N[C@@H]([C@@H](C)O)C(=O)N[C@@H](C)C(=O)N[C@@H]([C@@H](C)O)C(=O)N1)[C@@H](C)O
B5: [19CD]-isoGlu-R-C( )-PTAT-C( )-ATERLAHFLQRSSF-Gly(Me)-A-Ile(Me)-LSSTEVGS-Aad-T-Hyp-NH2 (Compd. 76) (peptide)
peptide: {C20 diacid}-[γGlu]RCPTATCATERLAHFLQRSSF[Sar]A[NMeI]LSSTEVGS[Aad]T[Hyp]-NH2
modifications: disulfide 3-8
SMILES: CC[C@H](C)[C@@H](C(=O)N[C@@H](CC(C)C)C(=O)N[C@@H](CO)C(=O)N[C@@H](CO)C(=O)N[C@H](C(=O)N[C@@H](CCC(=O)O)C(=O)N[C@H](C(=O)NCC(=O)N[C@@H](CO)C(=O)N[C@@H](CCCC(=O)O)C(=O)N[C@H](C(=O)N1C[C@H](O)C[C@H]1C(N)=O)[C@@H](C)O)C(C)C)[C@@H](C)O)N(C)C(=O)[C@H](C)NC(=O)CN(C)C(=O)[C@H](Cc1ccccc1)NC(=O)[C@H](CO)NC(=O)[C@H](CO)NC(=O)[C@H](CCCNC(=N)N)NC(=O)[C@H](CCC(N)=O)NC(=O)[C@H](CC(C)C)NC(=O)[C@H](Cc1ccccc1)NC(=O)[C@H](Cc1c[nH]cn1)NC(=O)[C@H](C)NC(=O)[C@H](CC(C)C)NC(=O)[C@H](CCCNC(=N)N)NC(=O)[C@H](CCC(=O)O)NC(=O)[C@@H](NC(=O)[C@H](C)NC(=O)[C@@H]1CSSC[C@H](NC(=O)[C@H](CCCNC(=N)N)NC(=O)CC[C@H](NC(=O)CCCCCCCCCCCCCCCCCCC(=O)O)C(=O)O)C(=O)N2CCC[C@H]2C(=O)N[C@@H]([C@@H](C)O)C(=O)N[C@@H](C)C(=O)N[C@@H]([C@@H](C)O)C(=O)N1)[C@@H](C)O
B6: [19CD]-isoGlu-R-C( )-PTAT-C( )-ATERLAHFLQRSSF-Gly(Me)-A-Ile(Me)-LSSTEVGSGT-Hyp-NH2 (Compd. 72) (peptide)
peptide: {C20 diacid}-[γGlu]RCPTATCATERLAHFLQRSSF[Sar]A[NMeI]LSSTEVGSGT[Hyp]-NH2
modifications: disulfide 3-8
SMILES: CC[C@H](C)[C@@H](C(=O)N[C@@H](CC(C)C)C(=O)N[C@@H](CO)C(=O)N[C@@H](CO)C(=O)N[C@H](C(=O)N[C@@H](CCC(=O)O)C(=O)N[C@H](C(=O)NCC(=O)N[C@@H](CO)C(=O)NCC(=O)N[C@H](C(=O)N1C[C@H](O)C[C@H]1C(N)=O)[C@@H](C)O)C(C)C)[C@@H](C)O)N(C)C(=O)[C@H](C)NC(=O)CN(C)C(=O)[C@H](Cc1ccccc1)NC(=O)[C@H](CO)NC(=O)[C@H](CO)NC(=O)[C@H](CCCNC(=N)N)NC(=O)[C@H](CCC(N)=O)NC(=O)[C@H](CC(C)C)NC(=O)[C@H](Cc1ccccc1)NC(=O)[C@H](Cc1c[nH]cn1)NC(=O)[C@H](C)NC(=O)[C@H](CC(C)C)NC(=O)[C@H](CCCNC(=N)N)NC(=O)[C@H](CCC(=O)O)NC(=O)[C@@H](NC(=O)[C@H](C)NC(=O)[C@@H]1CSSC[C@H](NC(=O)[C@H](CCCNC(=N)N)NC(=O)CC[C@H](NC(=O)CCCCCCCCCCCCCCCCCCC(=O)O)C(=O)O)C(=O)N2CCC[C@H]2C(=O)N[C@@H]([C@@H](C)O)C(=O)N[C@@H](C)C(=O)N[C@@H]([C@@H](C)O)C(=O)N1)[C@@H](C)O
B7: [19CD]-isoGlu-R-C( )-NTAT-C( )-ATQRLAHFLQRSSF-Gly(Me)-A-Ile(Me)-LSSTEVGSTT-Hyp-NH2 (Compd. 73) (peptide)
peptide: {C20 diacid}-[γGlu]RCNTATCATQRLAHFLQRSSF[Sar]A[NMeI]LSSTEVGSTT[Hyp]-NH2
modifications: disulfide 3-8
SMILES: CC[C@H](C)[C@@H](C(=O)N[C@@H](CC(C)C)C(=O)N[C@@H](CO)C(=O)N[C@@H](CO)C(=O)N[C@H](C(=O)N[C@@H](CCC(=O)O)C(=O)N[C@H](C(=O)NCC(=O)N[C@@H](CO)C(=O)N[C@H](C(=O)N[C@H](C(=O)N1C[C@H](O)C[C@H]1C(N)=O)[C@@H](C)O)[C@@H](C)O)C(C)C)[C@@H](C)O)N(C)C(=O)[C@H](C)NC(=O)CN(C)C(=O)[C@H](Cc1ccccc1)NC(=O)[C@H](CO)NC(=O)[C@H](CO)NC(=O)[C@H](CCCNC(=N)N)NC(=O)[C@H](CCC(N)=O)NC(=O)[C@H](CC(C)C)NC(=O)[C@H](Cc1ccccc1)NC(=O)[C@H](Cc1c[nH]cn1)NC(=O)[C@H](C)NC(=O)[C@H](CC(C)C)NC(=O)[C@H](CCCNC(=N)N)NC(=O)[C@H](CCC(N)=O)NC(=O)[C@@H](NC(=O)[C@H](C)NC(=O)[C@@H]1CSSC[C@H](NC(=O)[C@H](CCCNC(=N)N)NC(=O)CC[C@H](NC(=O)CCCCCCCCCCCCCCCCCCC(=O)O)C(=O)O)C(=O)N[C@@H](CC(N)=O)C(=O)N[C@@H]([C@@H](C)O)C(=O)N[C@@H](C)C(=O)N[C@@H]([C@@H](C)O)C(=O)N1)[C@@H](C)O

Target: T1, human amylin receptor 3 (hAMYR3), hCTR2 co-expressed with human receptor activity modifying protein 3 (hRAMP3) (human, UniProt P30988 25-474; O60896 24-148)
T1 sequence (looked up) 1: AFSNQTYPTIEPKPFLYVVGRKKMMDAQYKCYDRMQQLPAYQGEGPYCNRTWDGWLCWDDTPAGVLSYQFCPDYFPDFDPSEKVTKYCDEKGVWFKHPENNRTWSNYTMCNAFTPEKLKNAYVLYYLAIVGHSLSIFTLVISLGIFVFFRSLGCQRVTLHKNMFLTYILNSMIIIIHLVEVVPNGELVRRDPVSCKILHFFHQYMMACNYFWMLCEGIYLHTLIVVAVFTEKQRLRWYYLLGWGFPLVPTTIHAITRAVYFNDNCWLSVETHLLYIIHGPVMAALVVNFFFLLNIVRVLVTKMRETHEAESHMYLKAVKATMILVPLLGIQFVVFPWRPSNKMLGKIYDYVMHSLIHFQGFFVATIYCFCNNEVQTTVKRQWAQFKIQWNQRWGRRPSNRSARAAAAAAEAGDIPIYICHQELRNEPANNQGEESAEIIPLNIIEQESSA
T1 sequence (looked up) 2: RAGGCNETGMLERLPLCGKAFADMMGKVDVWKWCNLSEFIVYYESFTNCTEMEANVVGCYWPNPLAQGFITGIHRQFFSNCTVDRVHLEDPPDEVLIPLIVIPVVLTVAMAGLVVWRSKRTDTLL
Assay: cell-based or functional assay

Binder | hAMYR3 EC50 (nM); cAMP induction [nM]
B1 | 0.24
B2 | 0.42
B3 | 0.26
B4 | 0.39
B5 | 0.49
B6 | 0.27
B7 | 0.24
